Drawing on article PMC12102759, this text covers screen value for 167 variants.

B1: NCOA2 peptide 1073-1088 (Nuclear receptor coactivator 2), 16-mer library wild type / NSP3 UBl1 (ORF1ab Nsp3a Ub1, residues 819-925) (parent)
chain 1: PSDEGALLDQLYLALR
chain 2: APTKVTFGDDTVIEVQGYKSVNITFELDERIDKVLNEKCSAYTVELGTEVNEFACVVADAVIKTLQPVSELLTPLGIDLDEWSMATYYLFDESGEFKLASHMYCSFY
B2: PRDM14 peptide 196-211 (PR domain zinc finger protein 14), 16-mer library wild type / NSP3 SUD-M (ORF1ab Nsp3c SUD-M, residues 1356-1493) (parent)
chain 1: QFTEEDLHFVLYGVTP
chain 2: LPSIISNEKQEILGTVSWNLREMLAHAEETRKLMPVCVETKAIVSTIQRKYKGIKIQEGVVDYGARFYFYTSKTTVASLINTLNDLNETLVTMPLGYVTHGLNLEEAARYMRSLKVPATVSVSSPDAVTAYNGYLTSS
B3: SH3BP2 peptide 408-423 (SH3 domain-binding protein 2), 16-mer library wild type / TNKS ANK (TNKS 12 ANK repeats, residues 174-649) (parent)
chain 1: PQLPHLQRSPPDGQSF
chain 2: TGVPAVSGALRELLEACRNGDVSRVKRLVDAANVNAKDMAGRKSSPLHFAAGFGRKDVVEHLLQMGANVHARDDGGLIPLHNACSFGHAEVVSLLLCQGADPNARDNWNYTPLHEAAIKGKIDVCIVLLQHGADPNIRNTDGKSALDLADPSAKAVLTGEYKKDELLEAARSGNEEKLMALLTPLNVNCHASDGRKSTPLHLAAGYNRVRIVQLLLQHGADVHAKDKGGLVPLHNACSYGHYEVTELLLKHGACVNAMDLWQFTPLHEAASKNRVEVCSLLLSHGADPTLVNCHGKSAVDMAPTPELRERLTYEFKGHSLLQAAREADLAKVKKTLALEIINFKQPQSHETALHCAVASLHPKRKQVTELLLRKGANVNEKNKDFMTPLHVAAERAHNDVMEVLHKHGAKMNALDTLGQTALHRAALAGHLQTCRLLLSYGSDPSIISLQGFTAAQMGNEAVQQILSESTPIRTSD
B4: KIAA1671 peptide 600-615 (Uncharacterized protein KIAA1671), 16-mer library wild type / MDM2 SWIB (MDM2 SWIB/MDM2 domain, residues 17-125) (parent)
chain 1: TPEDDRSFQTVWATVF
chain 2: SQIPASEQETLVRPKPLLLKLLKSVGAQKDTYTMKEVLFYLGQYIMTKRLYDEKQQHIVYCSNDLLGDLFGVPSFSVKEHRKIYTMIYRNLVVVNQQESSDSGTSVSEN

The first test covers variants of B1.
Assay: not given
Conditions: with NSP3 UBl1 (ORF1ab Nsp3a Ub1, residues 819-925); bait immobilised on MaxiSorp plates (10 µg), library pre-cleared on GST, 2 h binding at 4 °C, five washes; one round per day, days 1-4; value from days 2 and 3; keep out of graded; scale: average fractional NGS count over selection days 2 and 3.
Turning to chain 1 S2V, the screen value was determined as 8.33e-06. Regarding chain 1 S2L, the screen value amounted to 1.56e-05. Still for that read-out and setting: to chain 1 S2M belongs 8.73e-06. The same measure, in the same setting: to chain 1 S2Q belongs 0.000342; to chain 1 Y12V, 0; to chain 1 Y12F, 0.000754. In the case of chain 1 Y12S, the screen value was found to be 0. Take chain 1 Y12A: the screen value came out at 0.

Variants of B2 are the subject of the next test.
Assay: not given
Conditions: with NSP3 SUD-M (ORF1ab Nsp3c SUD-M, residues 1356-1493); bait immobilised on MaxiSorp plates (10 µg), library pre-cleared on GST, 2 h binding at 4 °C, five washes; one round per day, days 1-4; value from days 2 and 3; keep out of graded; scale: average fractional NGS count over selection days 2 and 3.
For the variant chain 1 T15F, the screen value stood at 0. Same read-out and setting: the result for chain 1 T15R reads 0. The same measure, in the same setting: to chain 1 T15M belongs 0; to chain 1 V14N, 3.28e-05. On the same count and under the same terms, to chain 1 V14Q belongs 0; to chain 1 V14E, 3.19e-05; to chain 1 V14D, 3.47e-05. Turning to chain 1 V14Y, the screen value was 1.26e-05. The same measure, in the same setting: the result for chain 1 F2Y reads 0; that for chain 1 F9D, 0; that for chain 1 L11D, 0. Still for that read-out and setting: to chain 1 L11T belongs 0; to chain 1 L11G, 0. Consider chain 1 L11A, for which the screen value was 0. On the same count and under the same terms, to chain 1 L11N belongs 0; to chain 1 L11M, 0; to chain 1 L11E, 0.

In the case of chain 1 E5S, the screen value came out at 0.

For chain 1 E5R, the screen value was 0.

Turning to chain 1 T3Q, the screen value came to 0.

For chain 1 T3I, the screen value came out at 0. The same measure, in the same setting: to chain 1 P16W belongs 2.83e-05; to chain 1 E4T, 1.11e-05; to chain 1 E4F, 1.23e-05. On the same count and under the same terms, the result for chain 1 E4N reads 0. The same measure, in the same setting: the result for chain 1 E4D reads 2.34e-05; that for chain 1 L7I, 1.23e-05; that for chain 1 L7K, 0. Turning to chain 1 L7G, the screen value came to 0. The same measure, in the same setting: the result for chain 1 Y12F reads 1.23e-05; that for chain 1 Y12P, 0; that for chain 1 H8S, 2.39e-05.

In the case of chain 1 H8P, the screen value is 2.01e-05. Still for that read-out and setting: the result for chain 1 V10K reads 0; that for chain 1 V10H, 0; that for chain 1 V10N, 0. As to chain 1 V10D, the screen value was determined as 0.

As for chain 1 V10E, the screen value was 0.

A further test covers variants of B3. Put plainly: proteomic peptide phage display deep mutational scan (ProP-PD DMS): M13 P8 16-mer library selected against immobilised GST-tagged bait for four days (rounds), NGS of the eluted pools per day and pseudo-replica. The settings on record: with TNKS ANK (TNKS 12 ANK repeats, residues 174-649); bait immobilised on MaxiSorp plates (10 µg), library pre-cleared on GST, 2 h binding at 4 °C, five washes; one round per day, days 1-4; value from days 2 and 3; keep out of graded; scale: average fractional NGS count over selection days 2 and 3.
As to chain 1 F16S, the screen value is 9.92e-05. Still for that read-out and setting: the result for chain 1 F16K reads 4.17e-05; that for chain 1 L3G, 6.04e-05. As for chain 1 L3W, the screen value came out at 5.02e-05.

chain 1 L3D: the screen value stood at 9.07e-05.

For the variant chain 1 P11E, the screen value turned out to be 0. For chain 1 P11L, the screen value stood at 0.

For chain 1 P11I, the screen value stood at 0. As to chain 1 P11F, the screen value was 3.04e-05. Same read-out and setting: the result for chain 1 P11H reads 0; that for chain 1 P11M, 0; that for chain 1 P11Q, 0. On the same count and under the same terms, the result for chain 1 P11T reads 7.13e-05; that for chain 1 P11S, 2.19e-05; that for chain 1 P4R, 3.21e-05.

As for chain 1 P4K, the screen value turned out to be 0.000103. Still for that read-out and setting: to chain 1 P4F belongs 5.23e-05. On to chain 1 P10R, for which the screen value came out at 5.9e-05. Same read-out and setting: to chain 1 P10M belongs 0.000103. On the same count and under the same terms, the result for chain 1 D12Y reads 3.32e-05.

As for chain 1 D12T, the screen value stood at 6.11e-05. Still for that read-out and setting: the result for chain 1 D12F reads 0. As to chain 1 D12H, the screen value is 5.06e-05. Still for that read-out and setting: to chain 1 D12P belongs 4.27e-05; to chain 1 Q7R, 0.000135. Still for that read-out and setting: the result for chain 1 Q7P reads 3e-05; that for chain 1 Q7N, 0.000104.

With chain 1 L6K, the screen value came to 8.36e-05. Still for that read-out and setting: the result for chain 1 L6I reads 6.25e-05; that for chain 1 H5M, 6.6e-05. The same measure, in the same setting: the result for chain 1 H5A reads 0.000105. As for chain 1 H5N, the screen value is 3.1e-05. The same measure, in the same setting: to chain 1 H5E belongs 9.9e-05.

In the case of chain 1 H5W, the screen value is 7.66e-05. On the same count and under the same terms, the result for chain 1 H5L reads 0.000101; that for chain 1 H5D, 5.12e-05. Same read-out and setting: the result for chain 1 G13A reads 0; that for chain 1 G13Q, 0; that for chain 1 G13W, 0. On to chain 1 R8F, for which the screen value worked out at 0. Turning to chain 1 R8A, the screen value came out at 0. Regarding chain 1 Q2W, the screen value was 3.04e-05.

In the case of chain 1 Q14P, the screen value is 3.92e-05.

For the variant chain 1 Q14D, the screen value amounted to 6.15e-05. On the same count and under the same terms, the result for chain 1 Q14W reads 0.000114.

In another test the parent is B4. Described as above. Conditions: with MDM2 SWIB (MDM2 SWIB/MDM2 domain, residues 17-125); bait immobilised on MaxiSorp plates (10 µg), library pre-cleared on GST, 2 h binding at 4 °C, five washes; one round per day, days 1-4; value from days 2 and 3; keep out of graded; scale: average fractional NGS count over selection days 2 and 3.
As to chain 1 V15S, the screen value amounted to 2.82e-05. Take chain 1 V15W: the screen value is 0.000109. Same read-out and setting: to chain 1 V15M belongs 8.76e-05; to chain 1 V15F, 0.000104; to chain 1 V15N, 0. The same measure, in the same setting: to chain 1 V15P belongs 0; to chain 1 V15G, 0; to chain 1 V15A, 0.000191.

Consider chain 1 R6K, for which the screen value stood at 0.000243. For chain 1 R6I, the screen value came to 0.000114.

As for chain 1 R6F, the screen value stood at 0.000483.

As to chain 1 R6Q, the screen value turned out to be 0.000155. The same measure, in the same setting: to chain 1 R6G belongs 9.01e-05.

With chain 1 R6H, the screen value was 0.000397.

Regarding chain 1 R6M, the screen value was 0.000232. Still for that read-out and setting: the result for chain 1 R6L reads 0.000264; that for chain 1 R6A, 0.000223; that for chain 1 R6S, 0.00021. On the same count and under the same terms, the result for chain 1 R6Y reads 0.000693; that for chain 1 R6W, 0.0002; that for chain 1 R6E, 6.31e-05. With chain 1 R6T, the screen value is 4.17e-05. Same read-out and setting: the result for chain 1 R6V reads 0.000461; that for chain 1 T14I, 3.81e-05. On to chain 1 T14A, for which the screen value was found to be 2.89e-05.

In the case of chain 1 T14V, the screen value came to 1.9e-05. On the same count and under the same terms, to chain 1 T14W belongs 0.000103.

With chain 1 T14E, the screen value amounted to 0.000268. On the same count and under the same terms, to chain 1 T14D belongs 9.35e-05; to chain 1 T14S, 0.000516. Same read-out and setting: to chain 1 T14Q belongs 3.86e-05.

With chain 1 T14R, the screen value came to 0.00282. As to chain 1 T14M, the screen value was found to be 0.00063. Same read-out and setting: to chain 1 T14G belongs 5.64e-05; to chain 1 T14Y, 0.000108; to chain 1 T14H, 4.28e-05. On the same count and under the same terms, the result for chain 1 T14N reads 0.000664; that for chain 1 T10P, 1.43e-05. The same measure, in the same setting: to chain 1 T10I belongs 0.000209; to chain 1 T10S, 0.000471. chain 1 T10A: the screen value came to 0.000165.

As for chain 1 T10H, the screen value worked out at 0.000113.

With chain 1 T10M, the screen value is 0.00046. In the case of chain 1 T10L, the screen value stood at 6.08e-05. On the same count and under the same terms, the result for chain 1 T10D reads 1.9e-05. Same read-out and setting: the result for chain 1 T10W reads 0.000295. Still for that read-out and setting: to chain 1 T10F belongs 0.000114. In the case of chain 1 T10Y, the screen value was 0.000166. Same read-out and setting: the result for chain 1 T10Q reads 0.000116.

For the variant chain 1 P2R, the screen value was found to be 3.9e-05.

As to chain 1 P2A, the screen value was 8.35e-05. As to chain 1 P2Q, the screen value is 9.58e-05. Same read-out and setting: the result for chain 1 P2S reads 7.3e-05. Still for that read-out and setting: the result for chain 1 P2D reads 6.18e-05; that for chain 1 P2F, 5.33e-05; that for chain 1 P2L, 6.52e-05. Still for that read-out and setting: the result for chain 1 P2Y reads 0.000913; that for chain 1 P2E, 6.83e-05; that for chain 1 P2I, 0.000159. chain 1 P2H: the screen value worked out at 4.89e-05.

As to chain 1 P2G, the screen value was 0.000243. For chain 1 P2M, the screen value is 0.000288. Same read-out and setting: to chain 1 P2T belongs 0.000455; to chain 1 P2V, 3.63e-05. As to chain 1 Q9N, the screen value is 0. Still for that read-out and setting: to chain 1 Q9M belongs 0.000681; to chain 1 Q9F, 5.33e-05; to chain 1 Q9Y, 0.000186. On the same count and under the same terms, the result for chain 1 Q9A reads 0.000111.

Consider chain 1 Q9I, for which the screen value is 0.000133. The same measure, in the same setting: the result for chain 1 Q9T reads 4.79e-05; that for chain 1 Q9D, 0.

Regarding chain 1 Q9G, the screen value came to 0.000111. The same measure, in the same setting: to chain 1 Q9S belongs 8.1e-05; to chain 1 Q9W, 0.000575. The same measure, in the same setting: the result for chain 1 Q9L reads 0.00104.
